Laboratory results reported in patent US20220332804A1 (CSL INNOVATION, published 2022).
Substitutions are numbered along the chain they refer to.

What was measured:
Assay in all cases: SPR, KD relative to WT C2;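 note: biacore SPR at 37 °C, anti-C2 mAbs captured on anti-human IgG chips with alanine or serine point mutants of C2 as analyte, KD from 1:1 fit compared with wild-type C2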
human C2 E275A = target: T1, human C2 E275A (human, UniProt P06681 21-752)
T1 sequence: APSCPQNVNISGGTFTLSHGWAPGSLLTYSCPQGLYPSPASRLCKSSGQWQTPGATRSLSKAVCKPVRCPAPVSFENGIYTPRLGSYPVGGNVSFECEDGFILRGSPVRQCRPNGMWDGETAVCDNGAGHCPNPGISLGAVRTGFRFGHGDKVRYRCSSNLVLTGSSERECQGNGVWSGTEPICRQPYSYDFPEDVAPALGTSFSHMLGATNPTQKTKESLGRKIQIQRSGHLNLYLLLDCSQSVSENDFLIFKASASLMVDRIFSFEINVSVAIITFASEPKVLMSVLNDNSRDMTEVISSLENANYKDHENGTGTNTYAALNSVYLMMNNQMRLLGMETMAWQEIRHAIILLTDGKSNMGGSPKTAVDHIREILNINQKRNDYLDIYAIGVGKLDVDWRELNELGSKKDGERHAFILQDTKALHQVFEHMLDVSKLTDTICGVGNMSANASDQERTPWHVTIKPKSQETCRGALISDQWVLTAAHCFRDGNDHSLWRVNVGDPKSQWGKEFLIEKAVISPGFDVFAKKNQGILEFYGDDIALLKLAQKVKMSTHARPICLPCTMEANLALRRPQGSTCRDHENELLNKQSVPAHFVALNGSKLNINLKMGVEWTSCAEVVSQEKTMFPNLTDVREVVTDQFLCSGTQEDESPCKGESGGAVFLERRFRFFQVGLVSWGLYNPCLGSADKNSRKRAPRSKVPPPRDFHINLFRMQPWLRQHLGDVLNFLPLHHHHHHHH

human C2 Y328A = target: T2, human C2 Y328A (human, UniProt P06681 21-752)
T2 sequence: T1 sequence with A255E, Y308A

human C2 S473A = target: T3, human C2 S473A (human, UniProt P06681 21-752)
T3 sequence: T1 sequence with A255E, S453A

human C2 R493A = target: T4, human C2 R493A (human, UniProt P06681 21-752)
T4 sequence: T1 sequence with A255E, R473A

B1: RF16-242 (antibody, human IgG4 S228P, lambda, V domains shown)
VH: EVQLLQSGAEVKKPGESLKISCKGSGYSFTSYWIGWVRQMPGKGLEWMGIIYPGDSDTRYSPSFQGQVTISADKSISTAYLQWSSLKASDTAMYYCARRGHYGDYFDYWGQGTLVTVSS
VL: SYELTQPPSVSVSPGQTARITCSGDALPKKYAYWYHQKSGQAPVLVIYEDRRRPSEIPERFSGSSSGTMATLTITGAQVEDEGVYFCYSRDRAGNQRVFGGGTQLTVLG
notes: pH-dependent anti-C2 antibody from a phage display library
**Q.** For B1, which Fold diff (human C2 E275A) is on record?
**A.** The Fold diff was 6 fold.

**Q.** What about the Fold diff (human C2 Y328A) of the same binder?
**A.** The Fold diff was 6 fold.

**Q.** What about the Fold diff (human C2 S473A) of the same binder?
**A.** The Fold diff was 2 fold.

**Q.** And the Fold diff (human C2 R493A)?
**A.** The Fold diff was 1 fold.
